# From paper PMC10873582
# Legend:
# [1] = biological target: CmCalS1 of 'Dongyangshenli' (Cucurbita moschata ('Dongyangshenli'))
# [2] = biological target: CmCalS1 of figleaf gourd (Cucurbita ficifolia (figleaf gourd))
"CmCalS1 enzyme activity in vitro with CmNAC100L1 added (CmNAC100L1 3.5 ng, CmCalS1 85 ng); 18.61 U L^-1 without CmNAC100L1 [1]","CmCalS1 enzyme activity in vitro with CmNAC100L1 added (CmNAC100L1 3.5 ng, CmCalS1 85 ng); 10.33 U L^-1 without CmNAC100L1 [2]",Substance
47.8 U L^-1,,CmNAC100L1 of 'Dongyangshenli' (natural protein)
,3.23 U L^-1,CmNAC100L1 of figleaf gourd (natural protein)
